Measurements from patent US20130177528A1, “COMPOSITIONS AND METHODS FOR INHIBITING VIRAL INFECTION” (WESTERN UNIVERSITY OF HEALTH SCIENCES, priority 2011, published 2013).

Experiments:
Format in all cases: cell-based, herpes simplex virus type-1
[1] = test system: HSV-1 (KOS) gL86; test: HSV-1 entry into CHO-K1 cells expressing gD receptors, virus pre-incubated with CN (Example 2); conditions: virus 30 pfu/cell pre-incubated 90 min, read after 6 hr
Description: (§1) Viral Entry Assay. Viral entry assays were based on quantitation of β-galactosidase expressed from the viral genome in which β-galactosidase expression is inducible by HSV infection. Cells were transiently transfected in 6-well tissue culture dishes, using Lipofectamine 2000 (In vitrogen Corp) with plasmids expressing HSV-1 entry receptors (necitn-1, HVEM and 3-OST-3 expression plasmids) at 1.5 μg per well in 1 ml. At 24 hr post-transfection, cells were re-plated in 96-well tissue culture dishes (2×10^4 cells per well) at least 16 hr prior to infection. Cells were washed and exposed to serially dilute pre-incubated virus with […] or with 1×PBS at two fold dilutions for 2 hr at room temperature. In a parallel experiment the cells were also pre-incubated with NBE for 2 hr at room temperature before infection with virus. Later the cells were washed with 1×PBS and allowed 6 hr at 37° C. before solubilization in 100 μl of PBS containing 0.5% NP-40 and the -galactosidase substrate, o-nitro-phenyl-D-galactopyranoside (ONPG; ImmunoPure, PIERCE, Rockford, Ill., 3 mg/ml). The enzymatic activity was monitored at 410 nm by spectrophotometry at several time points after the addition of ONPG in order to define the interval over which the generation of the product was linear with time. Microscopy was performed using 20×objective of the microscope (Nikon). The slide book version 3.0 was used for images. All experiments were repeated a minimum of three times.
CN blocks herpes simplex virus type-1 (HSV-1) entry into CHO-K1 cells expressing gD receptors. […] After 6 hr at 37° C., the cells were washed, permeabilized with 100 μl of PBS containing 0.5% NP-40 and incubated with ONPG substrate (3.0 mg/ml) for quantitation of β-galactosidase activity expressed from the input viral genome. The enzymatic activity was measured at an optical density of 410 nm (OD 410).

[2] = test system: HSV-1 (KOS) gL86; test: HSV-1 entry into gD receptor expressing CHO-K1 cells, cells pre-incubated with CN (Example 8); conditions: for HSV-1 viral entry (β-galactosidase activity, OD 410): 25 pfu/cell, 6 h
Description: In this experiment, Chinese hamster ovary (CHO-K1) cells expressing glycoprotein D (gD) receptors: (A) 3-OST-3, (B) herpesvirus entry mediator and (C) nectin-1 were pre-incubated with contortrostatin (CN) at indicated concentrations or mock-treated (positive control [+]) with phosphate saline buffer for 90 min at room temperature. This treatment was followed by infection with β-galactosidase-expressing recombinant virus herpes simplex virus type-1 (HSV-1; KOS) gL86 (25 pfu/cell). Uninfected cells were kept as negative control (−). After 6 h, the cells were washed, permeabilized and incubated with o-nitro-phenyl-β-o-galactopyranoside (ONPG) substrated (3.0 mg/ml) for quantitation of β-galactosidase activity expressed from the input viral genome. The enzymatic activity was measured at an optical density of 410 nm (OD 410). Error bars represent SD. a=significant difference from controls and/or treatments (P<0.05, t-test).
as §1
To determine the effect of CN on HSV-1 entry, we first tested the ability of HSV-1 in the presence and absence of CN to infect CHO-KI cells expressing gD receptors. HSV-1 entry into cells was determined by using β-galactosidase expressing HSV-1 reporter virus (gL86).

[3] = test system: HSV-1 (KOS) gL86; test: HSV-1 infection of HeLa, Vero and 293T cells, virus pre-incubated (Example 3); conditions: virus 30 pfu/cell pre-incubated 90 min, 6 hr
Description: CN blocks herpes simplex virus type-1 (HSV-1) infection of natural target cells. HeLa, Vero and 293T cells were each grown to 100% confluency in 96-well plates. The β-galactosidase-expressing recombinant virus HSV-1 (KOS) HSV-1 gL86 (30 pfu/cell) was pre-incubated with CN at the concentration indicated in FIG. 7 or mock treated with 1 X phosphate saline buffer for 90 min at room temperature. After 6 hr, the cells were washed, permeabilized and incubated with ONPG substrate (3.0 mg/ml). The β-gal enzymatic activity was measured at an optical density of 410 nm (OD 410). Each value shown in FIG. 7 is the mean of three or more determinations (±SD). Mock treated HSV-1 with PBS was used as a control. HSV-1 infection of HeLa (panel A) and Vero and 293T cells (panel B) was blocked by CN.

[4] = test system: HSV-1 (KOS) gL86; test: HSV-1 infection of HeLa cells at MOIs 5, 15 and 25 PFU/cell (Example 6); conditions: virus pre-incubated 180 min, 6 hr
Description: HeLa cells were each grown to 100% confluency in 96-well plates. The β-galactosidase-expressing recombinant virus HSV-1 (KOS) HSV-1 gL86 […] was pre-incubated at MOIs of 5 (FIG. 10, panel A), 15 (FIG. 10, panel B) and 25 (FIG. 10, panel C) plaque-forming units per cell (PFU) with VCN (VN), CN or ADAM15 (Ad15) at the concentrations indicated or mock treated with 1 X phosphate saline buffer for 180 min at room temperature. After 6 hr, the cells were washed, permeabilized and incubated with ONPG substrate (3.0 mg/ml). The β-gal enzymatic activity was measured at an optical density of 410 nm (OD 410). Mock treated HSV-1 with PBS was used as a […] control ((+) infected with virus alone; (−) uninfected control).

B1: contortrostatin (protein)
chain: DAPANPCCDAATCKLTTGSQCADGLCCDQCKFMKEGTVCRRARGDDLDDYCNGISAGCPRNPFHA
With B1 the “HSV-1 viral entry (β-galactosidase activity, OD 410)” value (from here on “HSV-1 viral entry”) ([1]; CHO-K1 cells expressing 3-OST-3) was “blocked viral entry”, the “HSV-1 viral entry” value ([1]; CHO-K1 cells expressing HVEM) was “blocked viral entry” and the “HSV-1 viral entry” value ([1]; CHO-K1 cells expressing nectin-1) was “blocked viral entry”. The “HSV-1 viral entry” value ([2]; CHO-K1 cells expressing 3-OST-3 pre-incubated 90 min) was “significantly blocked viral emry in a dose-dependent manner”, the “HSV-1 viral entry” value ([2]; CHO-K1 cells expressing HVEM pre-incubated 90 min) was “significantly blocked viral emry in a dose-dependent manner” and the “HSV-1 viral entry” value ([2]; CHO-K1 cells expressing nectin-1 pre-incubated 90 min) was “significantly blocked viral emry in a dose-dependent manner”. The “concentrations at which entry blocking activity was pronounced” value ([2]; gD-receptor expressing CHO-K1 cells) was “micromolar concentrations”, the “HSV-1 infection (β-gal activity, OD 410)” value ([3]; 293T cells) was “blocked” and the “HSV-1 infection (β-gal activity, OD 410)” value ([3]; HeLa cells) was “blocked”. For the same molecule, the “HSV-1 infection (β-gal activity, OD 410)” value ([3]; Vero cells) was “blocked” and the “HSV-1 infection of HeLa cells, blocking and rank order (β-gal activity, OD 410)” value [4] was “blocked by CN >VCN >ADAM15”.
